The record followed here is publication PMC3969221 (2014).

The experiment has as its target Cry1AbMod protoxin (Bacillus thuringiensis, UniProt P0A370 1-1155). The experiment in a line: ELISA. (In an ELISA, binding on a coated surface is turned into a signal by an enzyme label.)

As a reminder, the Kd is a measure of binding affinity in units of concentration. Low readings indicate higher affinity, high ones lower affinity.

B1: Manduca sexta cadherin protein fragment (CR7–CR12) (domain or fragment)
chain: MIDFLTGQISVNTSGAIDADTPPRFHLYYTVVASDRCSTEDPADCPPDPTYWETEGNITIHITDTNNKVPQAETTKFDTVVYIYENATHLDEVVTLIASDLDRDEIYHTVSYVINYAVNPRLMNFFSVNRETGLVYVDYETQGSGEVLDRDGDEPTHRIFFNLIDNFMGEGEGNRNQNDTEVLVILLDVNDNAPELPPPSELSWTISENLKQGVRLEPHIFAPDRDEPDTDNSRVGYEILNLSTERDIEVPELFVMIQIANVTGELETAMDLKGYWGTYAIHIRAFDHGIPQMSMNETYELIIHPFNYYAPEFVFPTNDAVIRLARERAVINGVLATVNGEFLERISATDPDGLHAGVVTFQVVGDEESQRYFQVVNDGENLGSLRLLQAVPEEIREFRITIRATDQGTDPGPLSTDMTFRVVFVPTQGEPRFASSEHAVAFIEKSAGMEESHQLPLAQDIKNHLCEDDCHSIYYRIIDGNSEGHFGLDPVRNRLFLKKELIREQSASHTLQVAASNSPDGGIPLPASILTVTVTVREADPRPVFVRELYTAGISTADSIGRELLRLHATQSEGSAITYAIDYDTMVVDPSLEAVRQSAFVLNAQTGVLTLNIQPTATMHGLFKFEVTATDTAGAQDRTDVTVYVVSSQNRVYFVFVNTLQQVEDNRDFIA
The molecule B1 yielded a Kd of 6.8 nM.
